In patent publication US20220064256A1 (published 2022):
Where a chain is given by its changes, count along the chain named.

B1: CD22 TCR (TCR, V domains shown)
Valpha: EDKVVQSPLSLVVHEGDTVTLNCSYEVTNFRSLLWYKQEKKAPTFLFMLTSSGIEKKSGRLSSILDKKELFSILNITATQTGDSAVYLCAVDNQGGKLIFGQGTELSVKP
Vbeta: GAVVSQHPSWVICKSGTSVKIECRSLDFQATTMFWYRQFPKQSLMLMATSNEGSKATYEQGVEKDKFLINHASLTLSTLTVTSAHPEDSSFYICSARPSGVYNEQFFGPGTRLTVL
B2: CD22 TCR 3225 (TCR, V domains shown)
Valpha: B1 Valpha
Vbeta: B1 Vbeta with P98E, S99A

What was measured:
[1] = biological target: CD22 peptide … (SEQ ID NO: 1) in the context of HLA-A*02:01 (human); experiment: cell-based or functional assay
[2] = biological target: T1, CD22 peptide on HLA-A*02:01 (human); experiment: killing
T1 peptide: FLSNDTVQL

[3] = biological target: T2, CD22 peptide on HLA-A*02:04 (human); experiment: cytokine release
T2 peptide: FLSNDTVQL

[4] = biological target: T3, CD22 peptide on HLA-A*02:05 (human); experiment: cytokine release
T3 peptide: FLSNDTVQL

[5] = biological target: T4, CD22 peptide on HLA-A*02:07 (human); experiment: cytokine release
T4 peptide: FLSNDTVQL

[6] = biological target: T5, CD22 peptide on HLA-A*02:10 (human); experiment: cytokine release
T5 peptide: FLSNDTVQL

[7] = biological target: T6, CD22 peptide on HLA-A*02:02 (human); experiment: cytokine release
T6 peptide: FLSNDTVQL

[8] = biological target: T7, CD22 peptide on HLA-A*02:08 (human); experiment: cytokine release
T7 peptide: FLSNDTVQL

[9] = biological target: T1, CD22 peptide on HLA-A*02:01; experiment: cytokine release

| Binder | Kd value by peptide titration on T2 cells (50% of maximal IFNγ release, ELISA) [1] | binding result [2] | binding result [3] | binding result [4] | binding result [5] | binding result [6] | binding result [7] | binding result [8] | binding result [9] |
| --- | --- | --- | --- | --- | --- | --- | --- | --- | --- |
| B1 | 1.1e-08 | recognises | recognises | recognises | recognises | recognises | no recognition | no recognition | – |
| B2 | 2.2e-08 | – | – | – | – | – | – | – | recognises |
